Results from publication PMC12001967, “Different RNA recognition by ProQ and FinO depends on the sequence surrounding intrinsic terminator hairpins”.
Positions count from the first letter of the chain named. Names may count otherwise.

How the values were obtained:
ProQ [1] = target: T1, ProQ (Escherichia coli, UniProt P45577 1-232); assay: EMSA; 25 mM Tris-HCl pH 7.5, 150 mM NaCl, 5% glycerol, 1 mM MgCl2, 1 nM 32P-RNA, 30 min at room temperature; native 6% PAGE in 0.5x TBE at 4 C; conditions: protein: recombinant, tags: pET-15b construct, label: 32P
T1 sequence: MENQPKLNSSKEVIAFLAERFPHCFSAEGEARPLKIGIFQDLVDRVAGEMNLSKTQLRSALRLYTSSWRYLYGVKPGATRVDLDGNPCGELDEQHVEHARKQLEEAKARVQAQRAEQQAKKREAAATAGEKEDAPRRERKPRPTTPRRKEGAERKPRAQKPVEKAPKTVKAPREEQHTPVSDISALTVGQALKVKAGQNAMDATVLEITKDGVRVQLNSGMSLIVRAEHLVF

FinO [2] = target: T2, FinO (F-like plasmid (Escherichia coli), UniProt P29367 1-186); assay: as above; conditions: protein: recombinant, tags: His6-TEV site (ENLYFQ/S) N-terminal in the expression construct, label: 32P
T2 sequence: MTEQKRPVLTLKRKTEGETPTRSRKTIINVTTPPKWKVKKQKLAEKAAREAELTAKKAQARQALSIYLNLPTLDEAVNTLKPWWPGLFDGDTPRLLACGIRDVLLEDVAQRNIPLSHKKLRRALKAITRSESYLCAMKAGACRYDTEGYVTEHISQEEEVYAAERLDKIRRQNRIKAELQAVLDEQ

[3] = target: T3, ProQNTD (FinO domain of ProQ) (Escherichia coli, UniProt P45577 1-130); assay: as above; conditions: protein: recombinant, tags: pET-15b construct, label: 32P
T3 sequence: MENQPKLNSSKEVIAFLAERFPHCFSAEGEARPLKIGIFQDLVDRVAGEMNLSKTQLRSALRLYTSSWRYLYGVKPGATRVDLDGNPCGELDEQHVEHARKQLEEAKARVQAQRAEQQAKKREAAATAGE

ProQ [4] = target: T1, ProQ; assay: EMSA; max bound 85%; 150 mM NaCl, 25 mM Tris-HCl pH 7.5, 5% glycerol, 1 mM MgCl2, 1 nM 32P-RNA, 30 min at room temperature; native 6% PAGE in 0.5x TBE at 4 C; conditions: protein: recombinant; tags: pET-15b construct; label: 32P; terminator hairpin
FinO [5] = target: T2, FinO; assay: EMSA; max bound 57%; 150 mM NaCl, 25 mM Tris-HCl pH 7.5, 5% glycerol, 1 mM MgCl2, 1 nM 32P-RNA, 30 min at room temperature; native 6% PAGE in 0.5x TBE at 4 C; conditions: protein: recombinant; tags: His6-TEV site (ENLYFQ/S) N-terminal in the expression construct; label: 32P; terminator hairpin
FinO [6] = target: T2, FinO; assay: EMSA; max bound 55%; 150 mM NaCl, 25 mM Tris-HCl pH 7.5, 5% glycerol, 1 mM MgCl2, 1 nM 32P-RNA, 30 min at room temperature; native 6% PAGE in 0.5x TBE at 4 C; conditions: protein: recombinant; tags: His6-TEV site (ENLYFQ/S) N-terminal in the expression construct; label: 32P; terminator hairpin
ProQ [7] = target: T1, ProQ; assay: EMSA; max bound 67%; 150 mM NaCl, 25 mM Tris-HCl pH 7.5, 5% glycerol, 1 mM MgCl2, 1 nM 32P-RNA, 30 min at room temperature; native 6% PAGE in 0.5x TBE at 4 C; conditions: protein: recombinant; tags: pET-15b construct; label: 32P; terminator hairpin
[8] = terminator hairpin, 5' A4 paired with first four U of U8 tail
[9] = terminator hairpin, A-G then C-A mismatch below, GAU4 tail

B1: malM-FinP (structured_RNA)
RNA: GCUUUAUCAGCAGUGUAAAAGGCAAGGGGUAAUUACGCCCCACAGUGCUGAUUUUGCAACAACAGGUGCGUCUCCUGGCGCACCGAUUUU
Kd (ProQ [1]; terminator hairpin): 78 ± 22 nM
Kd (FinO [2]; terminator hairpin): 86 ± 17 nM

B2: malM-3' (structured_RNA)
RNA: GCUUUAUCAGCAGUGUAAAAGGCAAGGGGUAAUUACGCCCCACAGUGCUGAUUUUGCAACAACUGGUGCGUCUCCUGGCGCACCUUUUUUU
Kd (ProQ [1]; terminator hairpin, U7 tail): 27 ± 12 nM
Kd ([3]; terminator hairpin, U7 tail): 5.8 ± 0.7 nM

B3: malM-3' U64A;U85G (structured_RNA)
RNA: B2 RNA with U64A, U85G
Kd [3]: 1.9 ± 0.59 nM
Kd (FinO [2]): 150 ± 40 nM

B4: malM-3' U64A;U85G;U86A (structured_RNA)
RNA: B2 RNA with U64A, U85G, U86A
Kd (ProQ [1]): 160 ± 30 nM
Kd (FinO [2]): 130 ± 18 nM

B5: cspE81-3' (structured_RNA)
RNA: GGCCCUUCUGCUGCAAACGUAAUCGCUCUGUAAGAUACGUCAGCAAGAAUUCAAAACCCGCUUAAUCAGCGGGUUUUUUUU
Kd (ProQ [1]; [8]): 37 ± 7.1 nM
Kd [3, 8]: 2.4 ± 0.27 nM

B6: RepX-malM (structured_RNA)
RNA: GCAUUGAUUGCCUCCUUUGCAGGCAGUUGGUGGACUGGCGCUGGCGGGGUCACUACCCCCGCCCUGCGCCUUUUUUU
Kd ([3]; terminator hairpin): 3.2 ± 1.6 nM
Kd (FinO [2]; terminator hairpin): 150 ± 67 nM

B7: cspE81-FinP-stem (structured_RNA)
RNA: GGCCCUUCUGCUGCAAACGUAAUCGCUCUGUAAGAUACGUCAGCAAGAAUUCAACAGUCGCUUAAUCAGCGGCGAUUUU
Kd (ProQ [4]): 130 ± 34 nM
Kd (ProQ [1]; terminator hairpin): 130 ± 34 nM
Kd (FinO [2]; terminator hairpin): 56 ± 16 nM

B8: cspE81-FinP (structured_RNA)
RNA: B7 RNA with G57C, U58C, C73G
Kd ([3]; terminator hairpin): 4.9 ± 0.32 nM
Kd (FinO [2]; terminator hairpin): 88 ± 39 nM

B9: FinP (structured_RNA)
RNA: GGAUACAUAGGAACCUCCUCACAAAGGAUUCUAUGGACAGUCGAUGCAGGGAGUUCACGUCUCCCUGCAUCGGCGAUUUU
Kd (ProQ [1]; [9]): 79 ± 18 nM
Kd [3, 9]: 19 ± 6 nM
Kd (FinO [2]; [9]): 110 ± 16 nM

B10: FinP A39U;G75U;A76U (structured_RNA)
RNA: B9 RNA with A39U, G75U, A76U
Kd (ProQ [1]): 37 ± 5.4 nM
Kd [3]: 9.4 ± 4.5 nM
Kd (FinO [2]): 170 ± 45 nM

B11: FinP A39U;G75U (structured_RNA)
RNA: B9 RNA with A39U, G75U
Kd [3]: 6.2 ± 3.1 nM
Kd (FinO [2]): 200 ± 73 nM

B12: RepX (structured_RNA)
RNA: GCAUUGAUUGCCUCCUUUGCAGGCAGUUGGUGGUUAGGCGCUGGCGGGGUCACUACCCCCGCCCUGCGCCGCUCU
Kd (FinO [2]; terminator hairpin, A-G mismatch below): 61 ± 23 nM

B13: FinP-malM (structured_RNA)
RNA: GGAUACAUAGGAACCUCCUCACAAAGGAUUCUAUGGACUGUCGAUGCAGGGAGUUCACGUCUCCCUGCAUCGGCUUUUUUU
Kd (FinO [5]): 280 ± 110 nM
Kd (ProQ [1]; terminator hairpin): 25 ± 6.7 nM
Kd ([3]; terminator hairpin): 5.3 ± 1.5 nM

B14: malM-RepX (structured_RNA)
RNA: GCUUUAUCAGCAGUGUAAAAGGCAAGGGGUAAUUACGCCCCACAGUGCUGAUUUUGCAACAUUAGGUGCGUCUCCUGGCGCACCGCUCU
Kd (FinO [6]): 180 ± 93 nM
Kd (ProQ [1]; terminator hairpin): 61 ± 29 nM
Kd (FinO [2]; terminator hairpin): 180 ± 93 nM
Kd (ProQ [7]): 61 ± 29 nM
